# B1: wild type Lck (WT) [not stated] / receptor for activated C kinase 1 (RACK1), endogenous in NIH3T3 [mouse (endogenous in NIH3T3)] (parent)
# chain 1: MGCVCSSNPEDDWMENIDVCENCHYPIVPLDSKISLPIRNGSEVRDPLVTYEGSLPPASPLQDNLVIALHSYEPSHDGDLGFEKGEQLRILEQSGEWWKAQSLTTGQEGFIPFNFVAKANSLEPEPWFFKNLSRKDAERQLLAPGNTHGSFLIRESESTAGSFSLSVRDFDQNQGEVVKHYKIRNLDNGGFYISPRITFPGLHDLVRHYTNASDGLCTKLSRPCQTQKPQKPWWEDEWEVPRETLKLVERLGAGQFGEVWMGYYNGHTKVAVKSLKQGSMSPDAFLAEANLMKQLQHPRLVRLYAVVTQEPIYIITEYMENGSLVDFLKTPSGIKLNVNKLLDMAAQIAEGMAFIEEQNYIHRDLRAANILVSDTLSCKIADFGLARLIEDNEYTAREGAKFPIKWTAPEAINYGTFTIKSDVWSFGILLTEIVTHGRIPYPGMTNPEVIQNLERGYRMVRPDNCPEELYHLMMLCWKERPEDRPTFDYLRSVLDDFFTATEGQYQPQP
# chain 2: not shown
# Variants of: B1
# Assay: co-immunoprecipitation (IP: RACK1, blot anti-Lck), quantified
# Details: with receptor for activated C kinase 1 (RACK1), NIH3T3 Lck infectants, three independent experiments, mean ± SD, parent: 1, read off a plot
row,screen value,Variant
1,1,chain 1 Y505F
2,0.38,chain 1 R154K Y505F
3,0.12,chain 1 W97K Y505F

# — publication PMC5081367
